One block for each binder: values may come before it.
How the values were obtained:
Fyn SH3 [1] = target: T1, Fyn SH3 (Homo sapiens, UniProt P06241); experiment: NMR titration
Fyn SH3 [2] = target: T1, Fyn SH3; experiment: ITC

T1 sequence (P06241 79-146): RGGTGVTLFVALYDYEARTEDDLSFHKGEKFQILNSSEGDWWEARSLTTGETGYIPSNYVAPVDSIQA

Kd (Fyn SH3 [1]): 163 µM
B1: Tau 210-224 (peptide)
chain: ERPGSKEEVDEDRDV

Kd (Fyn SH3 [1]): 327 µM
B2: Tau 241-255 (peptide)
chain: QDGRPPQTAAREATS

Kd (Fyn SH3 [1]): 127 µM
B3: Tau 170-184 (peptide)
chain: PSGTGPEDTEGGRHA

Kd (Fyn SH3 [2]): 11 µM
B4: Tau 151-243 (protein)
chain: SGMPGAPLLPEGPREATRQPSGTGPEDTEGGRHAPELLKHQLLGDLHQEGPPLKGAGGKERPGSKEEVDEDRDVDESSPQDSPPSKASPAQDG

From article PMC12232886 (2025)
